Paper PMC3985386

Experiments:
[1] = target: Glutathiolated H-Ras^1-166 (Ras^SSG) (human) (UniProt P01112)
[2] = target: Truncated human H-ras (H-Ras^1-166), wild type (human) (UniProt P01112)

Minimal catalytic domain of Son of Sevenless (SOS^cat) (domain or fragment)
rate of MANT-GDP dissociation from 1 uM Ras with SOS^cat at a 1:1 ratio, 25°C [1]: 0.00185 s⁻¹
rate of MANT-GDP dissociation from 1 uM Ras with SOS^cat at a 1:1 ratio, 25°C [2]: 0.00202 s⁻¹
